Experimental findings from patent US20240254246A1 (PROMETHEUS BIOSCIENCES, published 2024) are described below.

Changes are numbered by the printed parent chain. Where two headings read alike, the source gives them in different places.

In assay [1] the target is T1, recombinant human CD30L protein (human, UniProt P32971 63-234).
T1 construct: also called rhCD30L; huCD30L (ELISA)
T1 sequence (looked up): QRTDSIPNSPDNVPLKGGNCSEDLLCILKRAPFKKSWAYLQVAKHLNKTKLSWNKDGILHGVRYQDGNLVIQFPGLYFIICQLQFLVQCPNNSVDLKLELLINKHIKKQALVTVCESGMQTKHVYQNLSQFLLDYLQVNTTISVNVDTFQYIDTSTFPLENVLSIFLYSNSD
The experiment in a line: ELISA, HuCD30L. Background: In an ELISA, binding on a coated surface is turned into a signal by an enzyme label.

In assay [2] the target is T2, human CD30L expressed on cells (human, UniProt P32971 1-234).
T2 construct: also called huCD30L; B16-huCD30L
T2 sequence: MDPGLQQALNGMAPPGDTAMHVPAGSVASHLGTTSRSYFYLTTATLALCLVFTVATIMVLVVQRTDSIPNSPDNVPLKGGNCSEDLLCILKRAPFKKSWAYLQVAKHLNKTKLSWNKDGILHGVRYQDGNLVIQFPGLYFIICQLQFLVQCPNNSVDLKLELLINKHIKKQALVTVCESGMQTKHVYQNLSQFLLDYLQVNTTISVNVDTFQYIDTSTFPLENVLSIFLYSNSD
As to the kind of experiment: flow cytometry, HuCD30L cells. Background: Flow cytometry measures light scatter and fluorescence of single cells or particles in a stream.

The target in assay [3] is T3, human CD30L expressed on cells (human, UniProt P32971 1-234).
T3 sequence (looked up): T2 sequence
The experiment in a line: cell-based or functional assay.

Assay [4] has as its target T4, cynomolgus CD30L expressed on HEK293 cells (cynomolgus, UniProt A0A7N9CVX7 1-234).
T4 sequence: T2 sequence with A19T, M20T, G32E, L41F, V75I, K78R, I204V, I227V
As to the kind of experiment: cell-based or functional assay.

The target in assay [5] is T3, human CD30L expressed on cells. As to the kind of experiment: flow cytometry, B16-huCD30L cells.
Description: Anti-CD30L antibody binding to a CD30L target was determined by flow cytometry, using B16 cells transfected to express human CD30L (compared to non-transfected B16), and using HEK293 cells transfected to express cynomolgus CD30L (compared to non-transfected HEK293). […] Cell surface bound antibodies were detected using a fluorescently labeled anti-human-IgG or anti-mouse IgG, depending on the Fc portion of the antibodies. After incubation with the secondary antibody, the cells were washed, fixed in a paraformaldehyde solution, and analyzed by flow cytometry to detect antibody binding.
The target is the same in assay [6]. As to the kind of experiment: flow cytometry, blocking of huCD30 binding to B16-huCD30L cells.
Assay [7] has the same target. The experiment in a line: flow cytometry, PMA/ionomycin-stimulated primary lymphocytes, Patient 1 (CD, #04-021).
Excerpt: (§1) Peripheral blood mononuclear cells (PBMCs) were isolated from freshly collected whole blood from Ulcerative Colitis (UC) and Crohn's Disease (CD) patients, by conventional density gradient centrifugation. To induce CD30L expression on primary lymphocytes, the isolated cells were stimulated overnight with Phorbol 12-myristate 13-acetate (PMA) and ionomycin. […] After washing to remove unbound antibodies, the cells were fixed in a paraformaldehyde solution and analyzed by flow cytometry to quantify cell surface antibody binding.
Assay [8] shares this target. The experiment in a line: flow cytometry, PMA/ionomycin-stimulated primary lymphocytes, Patient 2 (UC, #03-041).
Excerpt: as §1
The target is the same in assay [9]. The experiment in a line: flow cytometry, PMA/ionomycin-stimulated primary lymphocytes, Patient 3 (UC, #02-180).
Excerpt: as §1
Assay [10] shares this target. The experiment in a line: flow cytometry, PMA/ionomycin-stimulated primary lymphocytes, Patient 4 (CD, #01-051).
Excerpt: as §1
Assay [11] concerns the target T5, human CD30L expressed on B16 cells (human, UniProt P32971 1-234).
T5 sequence (looked up): T2 sequence
As to the kind of experiment: cell-based or functional assay.

Assay [12] addresses T6, cynomolgus CD30L expressed on HEK293 cells (cynomolgus, UniProt A0A7N9CVX7 1-234).
T6 sequence: T2 sequence with A19T, M20T, G32E, L41F, V75I, K78R, I204V, I227V
The experiment in a line: cell-based or functional assay. This is another data set of the same source.

Assay [13] deals with T7, recombinant human CD30L (human, UniProt P32971 63-234).
T7 construct: Purified recombinant protein of ELISA, BLI, Carterra and KinExA; also called rhCD30L; huCD30L
T7 sequence (looked up): T1 sequence (looked up)
As to the kind of experiment: ELISA, binding to purified rhCD30L.

Assay [14] addresses T8, recombinant cynomolgus CD30L (cynomolgus, UniProt A0A7N9CVX7 63-234).
T8 construct: Purified recombinant protein; also called rcyCD30L; cyno CD30L
T8 sequence: T1 sequence (looked up) with V13I, K16R, I142V, I165V
As to the kind of experiment: ELISA, binding to purified rcyCD30L.

The target of assay [15] is T5, human CD30L expressed on B16 cells. The experiment in a line: flow cytometry, binding to B16-rhCD30L cells.
For assay [16], the target named is T6, cynomolgus CD30L expressed on HEK293 …. As to the kind of experiment: flow cytometry, binding to HEK293-cyCD30L cells.
For assay [17], the target named is T7, recombinant human CD30L. As to the kind of experiment: ELISA, blocking of CD30-Fc on huCD30L; competitor CD30-Fc.
Assay [18] has as its target T8, recombinant cynomolgus CD30L. As to the kind of experiment: ELISA, blocking of CD30-Fc on rcyCD30L; competitor CD30-Fc.
Assay [19] has as its target T5, human CD30L expressed on B16 cells. The experiment in a line: flow cytometry, blocking of CD30-Fc on B16-huCD30L cells; competitor CD30-Fc.
The target in assay [20] is T6, cynomolgus CD30L expressed on HEK293 …. As to the kind of experiment: flow cytometry, blocking of CD30-Fc on HEK293-cyCD30L cells; competitor CD30-Fc.
In assay [21] the target is T9, recombinant cynomolgus CD30L protein (cynomolgus, UniProt A0A7N9CVX7 63-234).
T9 construct: Recombinant protein used in ELISA; also called cyCD30L
T9 sequence: T1 sequence (looked up) with V13I, K16R, I142V, I165V
The experiment in a line: ELISA, 1/50 dil.

The target of assay [22] is T9, recombinant cynomolgus CD30L protein. The experiment in a line: ELISA, 1/500 dil.
Assay [23] shares this target. As to the kind of experiment: ELISA, 1/5000 dil.
Assay [24] deals with T10, recombinant human CD30L protein (human, UniProt P32971 63-234).
T10 construct: Recombinant protein used in ELISA; also called huCD30L
T10 sequence (looked up): T1 sequence (looked up)
The experiment in a line: ELISA, CD30 competitor, undil.

Assay [25] has as its target T10, recombinant human CD30L protein. As to the kind of experiment: ELISA, CD30 competitor, 1/10 dil.
For assay [26] the target is unchanged. The experiment in a line: ELISA, CD30 competitor, 1/100 dil.
For assay [27] the target is unchanged. The experiment in a line: ELISA, CD30 competitor, 1/1000 dil.

B1: anti-CD30L clone 59 (antibody, V domains shown)
VH: QVQLVESGGGVVQPGRSLRLSCAASGFTFSIYGMHWVRQAPGKGLEWVAVIWYDGSNKYYVDSVKGRFTISRDNSKNSLYLQMNSLRAEDTAVYYCAREGNLFDYWGQGTLVTVSS
VL: DIQMTQSPSTLSASVGDRVTITCRASQSISSWLAWYQQKPGKAPKLLIYKASSLESGVPSRFSGSGSGTEFTLTISSLKPDDFATYYCQQYKSYYTFGQGTKLEIK
For B1, in assay [1], the OD came out at 0.06 OD. Also, the MFI in assay [2] is 9790 MFI.

B2: anti-CD30L Reference 1 antibody (antibody, human IgG1, lambda, V domains shown)
VH: QVQLQESGPGLVKPSETLSLTCTVSGGSISSYIWSWIRQPAGKGLEWIGRIYASGNTNYNPSLKSRVTISVDTSKNQFSLKLSSMTAADTAVYYCARDYRVAGTYYYYYGLDVWGQGTTVTVSS
VL: QSALTQPASVSGSPGQSITISCTGTSSDVGVYDYVSWYQQHPGKAPKLMIYEVSNRPSGVSNRFSGSKSGNTASLTISGLQTEDEADYYCSSYTSRSTWVFGGGTKLTVLG
For orientation: EC50 means the concentration that produces a half-maximal response. As a reminder, the IC50 is the concentration at which inhibition is half-maximal. For the molecule B2, the “Inhibition of IL-8 release in a dual cell assay (B16-huCD30L cells + K299 cells) IC50” value in [3] was 1.74 nM. Besides, the “Inhibition of IL-8 release in a dual cell assay (HEK293-cyCD30L cells + K299 cells) IC50” value in assay [4] was 0.68 nM. Moreover, the EC50 was found to be 1.74 nM in assay [5]; 3.63 nM in [7]; 3.12 nM in assay [8]; 3.07 nM in assay [9]; 2.82 nM in assay [10]. In [6], the IC50 was found to be 2.77 nM.

B3: anti-CD30L clone 60 (antibody, V domains shown)
VH: QVHLVESGGGVVQPGRSLRLSCAASGFAFNIYGMHWVRQAPGKGLEWVAVISYDGSNKVYADSVKGRFSISRDNSKNTLYLQMNSLRAEDTAVYYCAKSGGITMVRGVFDYWGQGTLVTVSS
VL: DIQMTQSPSSLPASVGDRVTITCRASQGIRNDLGWYQQKPGKAPKRLIHAASSLHSGVPSRFSGSGSGTEFTLTISSLQPEDFATYYCLQHNRYPITFGQGTRLEIK
As to B3, the OD in [1] was found to be 0.23 OD. This molecule also returned an MFI in assay [2] of 1090 MFI.

B4: anti-CD30L antibody clone 2 (antibody, V domains shown)
VH: EVQLVESGGGLVQPGRSLRLSCAASGFNFDDYAMHWVRQAPGKGLEWVSGISWRSGNIGYAGSVKGRFTISRDNAKNSLYLQMNSLRPEDSALYYCAKDKGIGFNWNYEGFDYWGQGTLVTVSS
VL: DIQMTQSPSSLSASVGDRVTITCRASQGISNHLAWFQQKPGKAPKSLIYAASSLQSGVPSKFSGSGSGTDFTLTISSLQPEDFATYYCQQYVTYPLTFGGGTKVEIK
notes: also called clone 2 parental
As to B4, the “Inhibition of IL-8 release in a dual cell assay (B16-huCD30L cells + K299 cells) IC50” value in assay [11] is 0.81 nM. The “Inhibition of IL-8 release in a dual cell assay (HEK293-cyCD30L cells + K299 cells) IC50” value in [12] came to 0.31 nM. In addition, the EC50 was determined as 0.04 nM in assay [13], 0.05 nM in assay [14], 0.74 nM in [15] and 0.3 nM in assay [16]. The IC50 in assay [17] is 1.35 nM; in assay [18], 1.28 nM; in assay [19], 0.79 nM; in [20] it was 0.34 nM.

B5: Clone 2 (antibody, V domains shown)
VH: B4 VH
VL: B4 VL
notes: also called CLONE_2 (parental)
The term % inhibition denotes the drop in the measured response relative to a control, in per cent. On to B5, for which the “Elisa Binding (OD)” value in assay [21] stood at 3.76 OD; in assay [22], 3.18 OD; in assay [23] it was 1.23 OD. The “% inhibition” value was 98% in assay [24], 98% in assay [25], 45% in [26] and 1% in assay [27]. Moreover, the 50% effective concentration (EC50) stood at 2.4 nM in assay [7], 1.55 nM in assay [8], 1.71 nM in [9] and 1.72 nM in [10].

B6: anti-CD30L clone 61 (antibody, V domains shown)
VH: QITLKESGPTLVKPTQTLTLTCTFSGFSLSTSGVGVGWIRQPPGKALEWLALIYWNDDKRYSPSLKSRLTITKDTSKNQVVLTMTNMDPVDTATYYCAHRRTTTVTIYYYYMDVWGKGTTVTVSS
VL: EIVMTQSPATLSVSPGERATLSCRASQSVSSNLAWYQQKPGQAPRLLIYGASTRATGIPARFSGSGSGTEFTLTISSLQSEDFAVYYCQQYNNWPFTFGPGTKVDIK
Turning to B6, the OD in assay [1] was found to be 1.42 OD. The molecule further showed an MFI in assay [2] of 362 MFI.

B7: Clone 1 (antibody, V domains shown)
VH: QVQLQESGPGLVKPSETLSLTCTVSGGSISGYYWSWIRQPPVKGLEWIGYIFYSGYTKYNPSLKSRVTISVDTSKNQFSLKLSSVTAADTAVYYCARDRWDFDYWGQGALVTVSS
VL: AIQMTQSPSYLSASVGDRVTIACRASQGIRNNLGWYQQKPGKAPKLLIYAESSLQSGVPSRFSGSGSGTDFTLTISSLQPEDFATYYCLQDFNYPYTFGQGTKLEIK
notes: also called CLONE_1 (parental)
With B7, the entries for the “Elisa Binding (OD)” value in [21], in [22] and in [23] were 2.83 OD, 2.87 OD and 1.16 OD, respectively. Besides, the “% inhibition” value turned out to be 98% in assay [24], 98% in assay [25], 34% in assay [26] and 0% in [27]. Besides, the EC50 in [7] was determined as 7.45 nM; in [8] it was 5.43 nM; in assay [9], 5.57 nM; in assay [10] it was 4.53 nM.
